Values of other authors, collected in patent US20120245117A1, “METHODS OF TREATING SQUAMOUS CELL LUNG CANCER WITH 4-IODO-3-NITROBENZAMIDE IN COMBINATION WITH GEMCITABINE AND CARBOPLATIN” (priority 2011, published 2012).

Test system: SqCLC
Details: SqCLC patients; combination with carboplatin/paclitaxel; cited from earlier work

B1: CP-751,871: an anti-IGF-1R monoclonal antibody (antibody, chains of the INN, looked up)
heavy: EVQLLESGGGLVQPGGSLRLSCTASGFTFSSYAMNWVRQAPGKGLEWVSAISGSGGTTFYADSVKGRFTISRDNSRTTLYLQMNSLRAEDTAVYYCAKDLGWSDSYYYYYGMDVWGQGTTVTVSSASTKGPSVFPLAPCSRSTSESTAALGCLVKDYFPEPVTVSWNSGALTSGVHTFPAVLQSSGLYSLSSVVTVPSSNFGTQTYTCNVDHKPSNTKVDKTVERKCCVECPPCPAPPVAGPSVFLFPPKPKDTLMISRTPEVTCVVVDVSHEDPEVQFNWYVDGVEVHNAKTKPREEQFNSTFRVVSVLTVVHQDWLNGKEYKCKVSNKGLPAPIEKTISKTKGQPREPQVYTLPPSREEMTKNQVSLTCLVKGFYPSDIAVEWESNGQPENNYKTTPPMLDSDGSFFLYSKLTVDKSRWQQGNVFSCSVMHEALHNHYTQKSLSLSPG
light: DIQMTQFPSSLSASVGDRVTITCRASQGIRNDLGWYQQKPGKAPKRLIYAASRLHRGVPSRFSGSGSGTEFTLTISSLQPEDFATYYCLQHNSYPCSFGQGTKLEIKRTVAAPSVFIFPPSDEQLKSGTASVVCLLNNFYPREAKVQWKVDNALQSGNSQESVTEQDSKDSTYSLSSTLTLSKADYEKHKVYACEVTHQGLSSPVTKSFNRGEC
  response rate: ~78%
  toxicity: strong toxicity
